From paper PMC2680971 (Journal of Molecular Biology, 2009)

B1: DC-SIGNR neck domain, 6.5 repeat polymorphic form, His2 tag (domain or fragment)
chain: KVPSSLSQEQSEQDAIYQNLTQLKAAVGELSEKSKLQEIYQELTQLKAAVGELPEKSKLQEIYQELTRLKAAVGELPEKSKLQEIYQELTRLKAAVGELPEKSKLQEIYQELTRLKAAVGELPEKSKLQEIYQELTELKAAVGELPEKSKLQEIYQELTQLKAAVE

What was measured:
[1] = target: DC-SIGNR neck domain, 7.5 repeat form, His2 tag (human); experiment: SEC
[2] = target: the molecule itself; experiment: SEC

Molecule	stoichiometry N [1]	stoichiometry N [2]
DC-SIGNR neck domain, 7.5 repeat form, His2 tag (domain or fragment)	4	–
B1	–	4
